# Results published in the supplement of paper PMC10065799, “High-throughput profiling of sequence recognition by tyrosine kinases and SH2 domains using bacterial peptide display” (eLife, 2023).
# Target: EPHB1 (UniProt P54762)
# Assay: phosphorylation enrichment, bacterial display (enrichment ratio); higher = better substrate or ligand; peptides without Tyr show the background
# 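Also: 11-residue human phosphosite peptides and single-mutation variants displayed on the E. coli surface, counted by deep sequencing, each peptide's frequency after selection divided by its frequency in the unselected input library; frequency after pTyr selection over input frequency; kinase dosed for 20-30% of maximal phosphorylation in three min.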
# Sequence of EPHB1 (P54762 whole entry, looked up): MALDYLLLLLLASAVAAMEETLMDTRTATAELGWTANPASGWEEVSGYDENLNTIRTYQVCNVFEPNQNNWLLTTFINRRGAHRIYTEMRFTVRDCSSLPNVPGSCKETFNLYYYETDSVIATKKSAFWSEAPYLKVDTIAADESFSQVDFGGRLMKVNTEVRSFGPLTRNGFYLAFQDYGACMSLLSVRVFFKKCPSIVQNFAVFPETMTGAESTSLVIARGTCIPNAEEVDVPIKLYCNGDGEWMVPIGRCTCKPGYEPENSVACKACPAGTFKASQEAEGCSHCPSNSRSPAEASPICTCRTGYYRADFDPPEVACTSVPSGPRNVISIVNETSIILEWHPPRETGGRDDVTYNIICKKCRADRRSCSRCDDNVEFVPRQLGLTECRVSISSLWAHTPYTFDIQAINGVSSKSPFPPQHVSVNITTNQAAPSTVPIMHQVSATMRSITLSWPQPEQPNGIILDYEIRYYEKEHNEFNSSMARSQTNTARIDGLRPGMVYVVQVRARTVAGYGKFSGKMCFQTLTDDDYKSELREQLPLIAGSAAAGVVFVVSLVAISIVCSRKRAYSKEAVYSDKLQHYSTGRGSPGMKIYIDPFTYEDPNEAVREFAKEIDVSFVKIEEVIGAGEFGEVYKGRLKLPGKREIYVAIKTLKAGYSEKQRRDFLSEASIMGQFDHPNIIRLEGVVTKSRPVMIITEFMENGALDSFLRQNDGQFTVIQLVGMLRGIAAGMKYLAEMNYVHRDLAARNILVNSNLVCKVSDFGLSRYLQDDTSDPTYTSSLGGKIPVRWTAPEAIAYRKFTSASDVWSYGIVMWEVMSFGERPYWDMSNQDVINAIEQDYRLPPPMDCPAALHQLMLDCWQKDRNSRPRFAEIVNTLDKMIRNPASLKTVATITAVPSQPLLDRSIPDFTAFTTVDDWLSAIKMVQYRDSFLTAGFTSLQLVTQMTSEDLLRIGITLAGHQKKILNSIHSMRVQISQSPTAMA
row,Sequence,phosphorylation enrichment
1,LTFDEYRNISQ [ANXA3_Y216],1.01
2,PEVSGYCHYAD [TG_Y234_C237Y],0.831
3,ELAVNYQEQAS [SLC9A9_Y591_I589V],0.563
4,GDPTEYFITAI [IGSF22_Y501_S503I_YF],0.584
5,QNTGDDFDLFG [PTPN11_Y62_Y62D_YF],0.599
6,RLAKTYETTLE [ALB_Y377],0.555
7,DDFDLYGGEKF [PTPN11_Y66_Y62D_YF],0.639
8,SAGSSYSISVI [PAX5_Y179_G183V],0.553
9,FLNSIYKCRDE [ROS1_Y2227_S2229C],0.463
10,ARLEFYENEKK [IRS1_Y47_YF],0.623
11,FRVAGYKTQGG [TIA1_Y383_E384K_YF],0.379
12,FCVVRYCWLRR [MPZ_Y181_Y177C],0.45
13,TDHLQYFDSNK [ARAP1_Y359_R358Q],0.721
14,AASHRYDLGGL [QPRT_Y162],0.356
15,TISPYYCQSLF [CRYAA_Y48_R49C],0.934
16,CTTIHYDFMCN [TP53_Y234_N235D_YF],0.681
17,LPEENYQVLRF [ARHGAP1_Y365],4.13

row,Sequence,phosphorylation enrichment
1,VEEDTYTMPST [PTK2_Y407_D402V],0.879
2,ACEVLYNIVFM [NCF2_Y125_A128V],1.17
3,TNFPLYLRSLE [MTM1_Y71_R69P_YF],0.685
4,VKPHRYRPGTV [H3-5_Y41],0.378
5,YGGLRYGYGGL [KRTAP20-2_Y13_V17G],0.418
6,DGYIDYAEFAK [MCFD2_Y138],0.639
7,VTAALYGRLYE [BTD_Y536],1.06
8,SHSMKYFDTAV [HLA-C_Y31_R30K],0.36
9,EKKKYYDAKIE [CASP5_Y104_T106A],0.679
10,HFVDEYDPTME [KRAS_Y32_I36M],0.727
11,KVGNEYVNKGQ [MYH7_Y410_T412N],0.337
12,RREWYYEVIIA [BACE1_Y260_V265A],0.539
13,IGEVVYQRAAM [GRIN2A_Y502_V506A],0.442
14,DLDLTYIYPNI [PTEN_Y27],1.71
15,TPGPNYRPGYN [USH2A_Y463],0.39
16,NQSVRYDSSLK [ABCC8_Y1353_L1349Q],0.484

# Target: Fyn (UniProt P06241)
# Sequence (P06241 whole entry, looked up): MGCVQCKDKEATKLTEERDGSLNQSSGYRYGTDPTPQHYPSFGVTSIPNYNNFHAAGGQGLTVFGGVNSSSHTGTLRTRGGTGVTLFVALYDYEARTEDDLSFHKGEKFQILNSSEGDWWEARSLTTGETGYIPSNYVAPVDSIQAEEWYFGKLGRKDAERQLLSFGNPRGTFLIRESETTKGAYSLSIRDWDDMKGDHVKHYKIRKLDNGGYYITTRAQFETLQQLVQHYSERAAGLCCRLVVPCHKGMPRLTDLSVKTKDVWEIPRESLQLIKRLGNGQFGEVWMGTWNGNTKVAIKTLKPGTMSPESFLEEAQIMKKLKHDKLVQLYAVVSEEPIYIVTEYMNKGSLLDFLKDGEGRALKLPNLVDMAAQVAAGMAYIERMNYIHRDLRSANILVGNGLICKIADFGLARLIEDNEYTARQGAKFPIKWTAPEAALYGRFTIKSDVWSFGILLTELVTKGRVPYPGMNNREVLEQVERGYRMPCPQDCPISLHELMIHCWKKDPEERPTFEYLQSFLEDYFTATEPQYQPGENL
# Assay: as above
row,Sequence,phosphorylation enrichment
1,LTFDEYRNISQ [ANXA3_Y216],0.854
2,PEVSGYCHYAD [TG_Y234_C237Y],0.506
3,ELAVNYQEQAS [SLC9A9_Y591_I589V],0.534
4,GDPTEYFITAI [IGSF22_Y501_S503I_YF],0.445
5,QNTGDDFDLFG [PTPN11_Y62_Y62D_YF],0.54
6,RLAKTYETTLE [ALB_Y377],0.752
7,DDFDLYGGEKF [PTPN11_Y66_Y62D_YF],2.27
8,SAGSSYSISVI [PAX5_Y179_G183V],0.688
9,FLNSIYKCRDE [ROS1_Y2227_S2229C],0.488
10,ARLEFYENEKK [IRS1_Y47_YF],0.439
11,FRVAGYKTQGG [TIA1_Y383_E384K_YF],0.668
12,FCVVRYCWLRR [MPZ_Y181_Y177C],0.606
13,TDHLQYFDSNK [ARAP1_Y359_R358Q],0.79
14,AASHRYDLGGL [QPRT_Y162],0.352
15,TISPYYCQSLF [CRYAA_Y48_R49C],1.12
16,CTTIHYDFMCN [TP53_Y234_N235D_YF],0.644
17,LPEENYQVLRF [ARHGAP1_Y365],0.768

row,Sequence,phosphorylation enrichment
1,VEEDTYTMPST [PTK2_Y407_D402V],6.55
2,ACEVLYNIVFM [NCF2_Y125_A128V],1.55
3,TNFPLYLRSLE [MTM1_Y71_R69P_YF],0.413
4,VKPHRYRPGTV [H3-5_Y41],0.386
5,YGGLRYGYGGL [KRTAP20-2_Y13_V17G],0.959
6,DGYIDYAEFAK [MCFD2_Y138],0.635
7,VTAALYGRLYE [BTD_Y536],5.26
8,SHSMKYFDTAV [HLA-C_Y31_R30K],0.356
9,EKKKYYDAKIE [CASP5_Y104_T106A],0.588
10,HFVDEYDPTME [KRAS_Y32_I36M],0.614
11,KVGNEYVNKGQ [MYH7_Y410_T412N],0.412
12,RREWYYEVIIA [BACE1_Y260_V265A],0.462
13,IGEVVYQRAAM [GRIN2A_Y502_V506A],0.9
14,DLDLTYIYPNI [PTEN_Y27],2.84
15,TPGPNYRPGYN [USH2A_Y463],0.432
16,NQSVRYDSSLK [ABCC8_Y1353_L1349Q],0.461
